Starred links: 1 amine or outer side, 2 acyl side, 3 side chain; linkers in the order of their positions; H or OH if unused. Non-standard residues stand in square brackets, D forms with d. Groups on a side chain read outwards from the residue. *: point of attachment. TTDS = 4-[3-[2-[2-(3-aminopropoxy)ethoxy]ethoxy]propylamino]-4-oxo-butanoyl; Trp(5-F) = N[C@@H](Cc1c[nH]c2ccc(F)cc12)C(=O)O; Phe(4-F) = N[C@@H](Cc1ccc(F)cc1)C(=O)O; γGlu = O=C(O)[C@H](CCC(=O)[*:2])N[*:1]; Stearoyl = CCCCCCCCCCCCCCCCCC(=O)*; Palmitoyl = CCCCCCCCCCCCCCCC(=O)*; αMeF = C[C@](N)(Cc1ccccc1)C(=O)O; Myristoyl = CCCCCCCCCCCCCC(=O)*; Cit = NC(=O)NCCC[C@H](N)C(=O)O; αMeK = C[C@](N)(CCCCN)C(=O)O; hLys = NCCCCC[C@H](N)C(=O)O; AEEA = NCCOCCOCC(=O)O; Aib = CC(C)(N)C(=O)O

B1: peptide of SEQ ID NO: 90 (peptide)
peptide: Ac-LEGREKVRAK(Ac)IA[Aib]EGK([TTDS-TTDS-TTDS-γGlu-γGlu-γGlu-Palmitoyl])STFS[αMeK]RAK(Ac)-NH2
B2: peptide of SEQ ID NO: 16 (peptide)
peptide: Ac-LEGREKVRAK(Ac)I[Aib][Aib]EGK([TTDS-TTDS-γGlu-γGlu-γGlu-Palmitoyl])STFS[dK]RAK(Ac)-NH2
B3: peptide of SEQ ID NO: 9 (peptide)
peptide: Ac-LEGREKVRAK(Ac)I[Aib][Aib]EGK([TTDS-TTDS-γGlu-γGlu-Palmitoyl])STFS[αMeK]RAK(Ac)-NH2
B4: peptide of SEQ ID NO: 92 (peptide)
peptide: Ac-LEGRERVRAK(Ac)I[Aib][Aib]EGK([TTDS-TTDS-TTDS-γGlu-γGlu-γGlu-Palmitoyl])ST[Trp(5-F)]S[Aib]RRK(Ac)-NH2
B5: peptide of SEQ ID NO: 95 (peptide)
peptide: Ac-LEGREKVRAK(Ac)I[Aib][Aib]EGK([TTDS-TTDS-TTDS-γGlu-γGlu-γGlu-Myristoyl])STFS[αMeK]RAK(Ac)-NH2
B6: peptide of SEQ ID NO: 11 (peptide)
peptide: Ac-LEGREKVRAK(Ac)I[Aib][Aib]EGK([TTDS-TTDS-TTDS-γGlu-γGlu-γGlu-Palmitoyl])STWS[αMeK]RAK(Ac)-NH2
B7: peptide of SEQ ID NO: 18 (peptide)
peptide: Ac-LEGREKVRAK(Ac)I[Aib][Aib]EGK([TTDS-TTDS-γGlu-γGlu-γGlu-Palmitoyl])STWS[dK]RKK(Ac)-NH2
B8: peptide of SEQ ID NO: 12 (peptide)
peptide: Ac-LEGREKVRA[Cit]I[Aib][Aib]EGK([TTDS-TTDS-TTDS-γGlu-γGlu-γGlu-Palmitoyl])STFS[αMeK]RAK(Ac)-NH2
B9: peptide of SEQ ID NO: 88 (peptide)
peptide: Ac-LEGREKVRAK(Ac)I[Aib][Aib]EGK([TTDS-TTDS-TTDS-γGlu-γGlu-γGlu-Palmitoyl])STFS[hLys]RAK(Ac)-NH2
B10: peptide of SEQ ID NO: 14 (peptide)
peptide: Ac-LEGREKVRAK(Ac)I[Aib][Aib]EGK([TTDS-TTDS-TTDS-γGlu-γGlu-γGlu-Palmitoyl])STF[dS]KRAK(Ac)-NH2
B11: peptide of SEQ ID NO: 89 (peptide)
peptide: Ac-LEGREKVRAK(Ac)I[Aib][Aib]EGK([TTDS-TTDS-TTDS-γGlu-γGlu-γGlu-Palmitoyl])ST[αMeF]SRRAK(Ac)-NH2
B12: peptide of SEQ ID NO: 91 (peptide)
peptide: Ac-LEGRERVRAK(Ac)I[Aib][Aib]EGK([TTDS-TTDS-TTDS-γGlu-γGlu-γGlu-Palmitoyl])ST[Phe(4-F)]S[Aib]RRK(Ac)-NH2
B13: peptide of SEQ ID NO: 10 (peptide)
peptide: Ac-LEGREKVRAK(Ac)I[Aib][Aib]EGK([TTDS-TTDS-γGlu-γGlu-γGlu-γGlu-Palmitoyl])STFS[αMeK]RAK(Ac)-NH2
B14: peptide of SEQ ID NO: 19 (peptide)
peptide: Ac-LEGREKVRAK(Ac)I[Aib][Aib]EGK([AEEA-AEEA-AEEA-γGlu-γGlu-γGlu-Palmitoyl])STWS[Aib]RKK(Ac)-NH2
SMILES: CCCCCCCCCCCCCCCC(=O)N[C@@H](CCC(=O)N[C@@H](CCC(=O)N[C@@H](CCC(=O)NCCOCCOCC(=O)NCCOCCOCC(=O)NCCOCCOCC(=O)NCCCC[C@H](NC(=O)CNC(=O)[C@H](CCC(=O)O)NC(=O)C(C)(C)NC(=O)C(C)(C)NC(=O)[C@@H](NC(=O)[C@H](CCCCNC(C)=O)NC(=O)[C@H](C)NC(=O)[C@H](CCCNC(=N)N)NC(=O)[C@@H](NC(=O)[C@H](CCCCN)NC(=O)[C@H](CCC(=O)O)NC(=O)[C@H](CCCNC(=N)N)NC(=O)CNC(=O)[C@H](CCC(=O)O)NC(=O)[C@H](CC(C)C)NC(C)=O)C(C)C)[C@@H](C)CC)C(=O)N[C@@H](CO)C(=O)N[C@H](C(=O)N[C@@H](Cc1c[nH]c2ccccc12)C(=O)N[C@@H](CO)C(=O)NC(C)(C)C(=O)N[C@@H](CCCNC(=N)N)C(=O)N[C@@H](CCCCN)C(=O)N[C@@H](CCCCNC(C)=O)C(N)=O)[C@@H](C)O)C(=O)O)C(=O)O)C(=O)O
B15: peptide of SEQ ID NO: 96 (peptide)
peptide: Ac-LEGREKVRAK(Ac)I[Aib][Aib]EGK([TTDS-TTDS-TTDS-γGlu-γGlu-γGlu-Myristoyl])STFS[αMeK]RAK-NH2
B16: peptide of SEQ ID NO: 15 (peptide)
peptide: Ac-LEGREKVRAK(Ac)I[Aib][Aib]EGK([TTDS-TTDS-TTDS-γGlu-γGlu-γGlu-Palmitoyl])STF[Aib]KRAK(Ac)-NH2
B17: peptide of SEQ ID NO: 97 (peptide)
peptide: Ac-LEGREKVRAK(Ac)I[Aib][Aib]EGK([TTDS-TTDS-TTDS-γGlu-γGlu-γGlu-γGlu-Myristoyl])STFS[αMeK]RAK-NH2
B18: peptide of SEQ ID NO: 20 (peptide)
peptide: Ac-LEGREKVRAK(Ac)I[Aib][Aib]EGK([TTDS-TTDS-TTDS-γGlu-γGlu-γGlu-Stearoyl])STWS[Aib]RKK(Ac)-NH2
B19: peptide of SEQ ID NO: 2 (peptide)
peptide: Ac-LEGREKVRAK(Ac)I[Aib][Aib]EGK([TTDS-TTDS-TTDS-γGlu-γGlu-γGlu-Palmitoyl])STFS[Aib]RAK(Ac)-NH2
B20: peptide of SEQ ID NO: 93 (peptide)
peptide: Ac-LEGREKVRAK(Ac)I[Aib][Aib]EGK([TTDS-TTDS-TTDS-γGlu-γGlu-γGlu-Palmitoyl])STFTRRAK(Ac)-NH2
B21: peptide of SEQ ID NO: 13 (peptide)
peptide: Ac-LEGREKVRAK(Ac)I[Aib][Aib]EGK([TTDS-TTDS-TTDS-γGlu-γGlu-γGlu-Palmitoyl])STFSKRAK(Ac)-NH2
B22: peptide of SEQ ID NO: 94 (peptide)
peptide: Ac-LEGREKVRAK(Ac)I[Aib][Aib]EGK([TTDS-TTDS-TTDS-γGlu-γGlu-γGlu-Palmitoyl])STFVRRAK(Ac)-NH2
B23: peptide of SEQ ID NO: 17 (peptide)
peptide: Ac-LEGREKVRAK(Ac)I[Aib][Aib]EGK([TTDS-TTDS-γGlu-γGlu-γGlu-Palmitoyl])STWS[dK]RAK(Ac)-NH2

The test has as its target T1, RXFP1 receptor (endogenous, on OVCAR5 cells) (UniProt Q9HBX9 1-757, limits assumed).
T1 sequence (looked up): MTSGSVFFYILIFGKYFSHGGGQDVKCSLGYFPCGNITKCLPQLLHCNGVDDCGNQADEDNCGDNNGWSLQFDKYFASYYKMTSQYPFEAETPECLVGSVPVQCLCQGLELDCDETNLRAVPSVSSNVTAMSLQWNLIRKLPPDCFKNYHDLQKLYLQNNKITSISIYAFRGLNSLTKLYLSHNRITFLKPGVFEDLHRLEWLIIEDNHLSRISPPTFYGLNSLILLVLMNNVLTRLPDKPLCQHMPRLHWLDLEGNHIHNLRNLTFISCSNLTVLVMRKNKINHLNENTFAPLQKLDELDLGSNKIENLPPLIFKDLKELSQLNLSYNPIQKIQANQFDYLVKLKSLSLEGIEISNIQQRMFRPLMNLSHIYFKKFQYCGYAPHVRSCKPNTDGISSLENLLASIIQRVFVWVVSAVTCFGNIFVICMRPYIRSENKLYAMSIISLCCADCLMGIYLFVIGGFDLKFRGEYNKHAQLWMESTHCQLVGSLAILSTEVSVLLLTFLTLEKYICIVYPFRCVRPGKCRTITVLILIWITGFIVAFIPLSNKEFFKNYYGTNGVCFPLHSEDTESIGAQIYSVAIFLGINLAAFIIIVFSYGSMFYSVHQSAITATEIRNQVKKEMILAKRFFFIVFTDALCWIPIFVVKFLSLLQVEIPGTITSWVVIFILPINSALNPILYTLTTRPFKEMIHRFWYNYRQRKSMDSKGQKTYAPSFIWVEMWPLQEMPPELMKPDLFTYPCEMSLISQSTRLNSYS
The experiment in a line: cell-based or functional assay.
Regarding B1, the “EC50 (nM), OVCAR 5 cells (cAMP)” value amounted to 0.14 nM and the “EMax, OVCAR 5 cells (cAMP)” value was determined as 97%.
Taken in the same sequence, the figures for B2 were 6.8 nM and 88%.
Taken in the same sequence, the figures for B3 were 0.7 nM and 93%.
Taken in the same sequence, the figures for B4 were 0.1 nM and 99%.
As for B5, the “EC50 (nM), OVCAR 5 cells (cAMP)” value amounted to 1.8 nM and the “EMax, OVCAR 5 cells (cAMP)” value amounted to 91%.
Taken in the same sequence, the figures for B6 were 0.83 nM and 93%.
Take B7: the “EC50 (nM), OVCAR 5 cells (cAMP)” value came to 1.54 nM and the “EMax, OVCAR 5 cells (cAMP)” value amounted to 92%.
Taken in the same sequence, the figures for B8 were 0.93 nM and 90%.
In the case of B9, the “EC50 (nM), OVCAR 5 cells (cAMP)” value turned out to be 0.17 nM and the “EMax, OVCAR 5 cells (cAMP)” value turned out to be 96%.
Taken in the same sequence, the figures for B10 were 3.2 nM and 90%.
As to B11, the “EC50 (nM), OVCAR 5 cells (cAMP)” value amounted to 0.1 nM and the “EMax, OVCAR 5 cells (cAMP)” value amounted to 97%.
Taken in the same sequence, the figures for B12 were 0.09 nM and 97%.
Taken in the same sequence, the figures for B13 were 0.79 nM and 95%.
With B14, the “EC50 (nM), OVCAR 5 cells (cAMP)” value is 11.5 nM and the “EMax, OVCAR 5 cells (cAMP)” value is 94%.
Regarding B15, the “EC50 (nM), OVCAR 5 cells (cAMP)” value turned out to be 0.88 nM and the “EMax, OVCAR 5 cells (cAMP)” value came out at 92%.
Taken in the same sequence, the figures for B16 were 2.1 nM and 85%.
Taken in the same sequence, the figures for B17 were 0.29 nM and 98%.
Taken in the same sequence, the figures for B18 were 0.15 nM and 96%.
For the molecule B19, the “EC50 (nM), OVCAR 5 cells (cAMP)” value was determined as 2.4 nM and the “EMax, OVCAR 5 cells (cAMP)” value stood at 99%.
Taken in the same sequence, the figures for B20 were 0.77 nM and 86%.
Taken in the same sequence, the figures for B21 were 2.12 nM and 91%.
Taken in the same sequence, the figures for B22 were 1.74 nM and 88%.
For B23, the “EC50 (nM), OVCAR 5 cells (cAMP)” value turned out to be 4.6 nM and the “EMax, OVCAR 5 cells (cAMP)” value came to 91%.

For the origin of these results see patent US20190233494A1 (Sanofi, published 2019).
